Laboratory results from patent US10787640B2, “Producing mesodermal cell types and methods of using the same” (The Board of Trustees of the Leland Stanford Junior …, priority 2015, dated 2020).

What was measured:
Assay type in all cases: cell-based, human
[1] = tested on: day 3 early somite progenitors; experiment: Patterning of early somite progenitors into sclerotome or dermomyotome
Method: Day 2 paraxial mesoderm was briefly washed (DMEM/F12) and further differentiated into day 3 early somite/somitomere precursors for 24 hours (1 μM A-83-01+250 nM LDN-193189+1 μM C59+500 nM PD0325901). Subsequently, day 3 early somites were dorsoventrally patterned into either ventral somites/sclerotome (5 nM 21K+1 μM C59) or dorsal somites/dermomyotome (3 μM CHIR99021+150 nM Vismodegib). Sclerotome induction was conducted for 48-72 hours (leading to day 5-6 ventral somite progenitors). […] Media was changed 24 hours for all steps. The Hedgehog agonist 21K, which has been previously described in, e.g., Brunton et al., 2009 the disclosure of which is incorporated herein by reference in its entirety, was commercially synthesized.
Day 3 early somites were briefly washed (DMEM/F12), treated with BMP4+CHIR99021+Vismodegib for 24 hours, washed again (DMEM/F12) and subsequently treated with CHIR99021 (3 μM)+21K (5 nM) for 24 hours. This day 5 dermomyotome was further empirically differentiated towards skeletal muscle-like progeny (using medium containing 2% horse serum, which has been previously described in, e.g., Xu et al. 2013, the disclosure of which is incorporated herein by reference in its entirety) for 12 days, yielding day 17 skeletal muscle-containing populations.
FIG. 11: A) To determine the length of time required for sclerotome differentiation, a qPCR timecourse was performed, encompassing undifferentiated hESCs (D0), day 2 hESC-derived paraxial mesoderm (D2 PXM), day 3 hESC-derived early somite progenitors, and hESC-derived day 3 early somite progenitors that were exposed to sclerotome inductive conditions (5 nM 21K+1 μM C59) for 24 or 48 hours. B) Description of EF1α-BCL2-T2A-GFP lentiviral construct (otherwise known as “C306”; top) and FACS plot of a stably-transduced polyclonal H9 hESC line with near-uniform expression of the BCL2-T2A-GFP transgene (green contour) by comparison to uncolored wild-type hESCs (bottom) (see above methods for details of derivation of the H9 BCL2-T2A-GFP hESC line). C) Higher-magnification picture of BCL2-T2A-GFP hESC-derived sclerotome ectopic bone grafts (originally described above in FIG. 4, panel E), showing that despite the near-ubiquitous expression of GFP throughout the ectopic bone graft (indicating its human provenance), the blood vessels are clearly GFP-negative and therefore presumably derived from the mouse host; scale bar=1 mm. […] L) Description of EF1a-BCL2-T2A-GFP lentiviral construct (otherwise known as “C306”; top) and FACS plot of a stably-transduced polyclonal H9 hESC line with near-uniform expression of the BCL2-T2A-GFP transgene (green contour) by comparison to uncolored wild-type hESCs (bottom) (see the methods described herein for details of derivation of the H9 BCL2-T2A-GFP hESC line). M) Description of UBC-Luciferase-T2A-tdTomato lentiviral construct (top); bioluminescent assay of cultured H9 UBC-Luciferase-T2A-tdTomato hESCs validates that these cells are luciferase-expressing in vitro (bottom).

[2] = tested on: day 5 hematopoietic intermediates; experiment: Day 5-7 continued differentiation of hematopoietic intermediates, factor withholding
Method: (§1) SOX17^mCherry/+ H9 hESCs (referred to as SOX17-mCherry hESCs throughout this study) were routinely propagated in mTeSR1 (StemCell Technologies)+1% penicillin/streptomycin. They were passaged ˜1:12-1:25 as fine clumps using Accutase (Gibco) onto plates precoated with a Geltrex substratum (Gibco) in mTeSR1 medium supplemented with thiazovivin ([…]; a ROCK inhibitor). After overnight plating, hESCs were washed (DMEM/F12) and differentiated towards posterior PS using BMP4 (15-40 ng/mL, R&D Systems), CHIR99021 ([…]), FGF2 (20 ng/mL, Invitrogen) and PIK90 (100 nM, Calbiochem) for 24 hours, with the optional inclusion of Activin (30 ng/mL, R&D Systems) to induce mid PS. Day 1 mid or posterior PS was subsequently washed (DMEM/F12) and further differentiated using BMP4 (40 ng/mL), GDC-0941 (0.25-2.5 μM, Cellagen Technology), Forskolin (10 μM, Tocris), SB-505124 ([…]), VEGF (100 ng/mL, R&D Systems), XAV939 (1 μM, Tocris) and ascorbic acid-2-phosphate (200 μg/mL, Sigma) for 24 hours. Day 2 cultures were further directed into the definitive hematopoietic lineage/hemogenic precursors by Activin A (15 ng/mL), GDC-0941 (0.25-2.5 μM), VEGF (100 ng/mL), XAV939 (1 μM) and ascorbic acid-2-phosphate (200 μg/mL) for 24 hours. Day 3 definitive hematopoietic progenitors were subsequently differentiated into early Runx1^lowGfi1^low hemogenic intermediates through day 4-5 treatment with BMP4 (50 ng/mL), TTNPB (500 nM), VEGF (100 ng/mL) and XAV939 (1 μM) for 48 hours, supplemented with SB-505124 (2 μM) on day 5. Day 5 populations were then dissociated into single cells, counted and reaggregated in individual wells of a low-adhesion V-bottom or U-bottom 96-well plate (e.g., Thermo Fisher, catalog no. 249952) with ˜15,000-20,000 cells seeded per well. Aggregates were cultured for 48 additional hours until day 7 in BMP4 (50 ng/mL), TTNPB (500 nM), VEGF (100 ng/mL), XAV939 (1 μM), SB-505124 (2 μM), SCF (25-50 ng/mL, R&D Systems), IL6 (10 ng/mL, R&D Systems) and IL6RA (250-1000 ng/mL, R&D Systems). All differentiation was conducted in serum-free CDM2 fully-defined basal media.

[3] = tested on: day 3 hemogenic precursors; experiment: Hemogenic precursors into day 5 hematopoietic intermediates; details: withdrawal of the factor from BMP, VEGF, XAV939, TTNPB
Method: as §1

[4] = tested on: SOX17-mCherry hESCs; experiment: Hematopoietic mesoderm and SOX17+CD34+ hemogenic precursor specification
Method: as §1

Cc1cnc(-c2cnc(NCCNc3ccc(C#N)cn3)nc2-c2ccc(Cl)cc2Cl)[nH]1 [CHIR99021, 6-[[2-[[4-(2,4-Dichlorophenyl)-5-(5-methyl-1H-imidazol-2-yl)-2-pyrimidinyl]amino]ethyl]amino]-3-pyridinecarbonitrile] was tested, and the “dorsal somite marker PAX3 and sclerotome fate” value ([1]; CHIR together with Vismodegib) was “sustained dorsal somite marker PAX3 while inhibiting the sclerotome fate”.

Cc1cccc(-c2[nH]c(C(C)(C)C)nc2-c2ccc3c(c2)OCO3)n1 [SB-505124, 2-[4-(1,3-Benzodioxol-5-yl)-2-(1,1-dimethylethyl)-1H-imidazol-5-yl]-6-methyl-pyridine] was tested, and the GFI1B expression ([2]; individually withholding the factor from the 8 factors, 48 hours) was “strongly diminished”.

B1: BMP4: BMP family ligand, BMP agonist (protein, UniProt P12644 293-408, looked up)
Bone morphogenetic protein 4: SPKHHSQRARKKNKNCRRHSLYVDFSDVGWNDWIVAPPGYQAFYCHGDCPFPLADHLNSTNHAIVQTLVNSVNSSIPKACCVPTELSAISMLYLDEYDKVVLKNYQEMVVEGCGCR
With B1 the “RUNX1 expression by day 5” value [3] was “crippled RUNX1 expression”, the PAX7 expression ([1]; 3 μM CHIR99021+150 nM Vismodegib, 48 hours, BMP4 10 ng/mL) was “greatly enhances the expression of PAX7” and the “PAX7 induction in central dermomyotome” value ([1]; CHIR99021+Vismodegib+BMP4, 24 hours) was “important to induce PAX7 in central dermomyotome”. The “hematopoietic or venous gene expression” value ([2]; withdrawal of the factor) was “minimally effected hematopoietic or venous gene expression”.

B2: Activin: TGFβ agonist (protein, UniProt P08476 311-426, looked up)
Inhibin beta A chain: GLECDGKVNICCKKQFFVSFKDIGWNDWIIAPSGYHANYCEGECPSHIAGTSGSSLSFHSTVINHYRMRGHSPFANLKSCCVPTKLRPMSMLYYDDGQNIIKKDIQNMIVEECGCS
modifications: Inhibin beta A chain
notes: TGFβ agonist
With B2 the “downstream ability to acquire hematopoietic fate” value ([4]; Activin 30 ng/mL during PS induction) was “significantly enhanced the downstream ability of cells to acquire hematopoietic fate” and the “SOX17+ cells formed by day 3” value ([4]; treatment on day 2-3, 24 hours) was “doubled the generation of SOX17^+ cells”.
